Results reported in patent publication CN109627331A.
“And” between values parts separate entries of the source, which are not always exact repeats. Identical values can stand only once.

Legend:
[1] = target: 犬细小病毒 (canine parvovirus, whole virus) (犬细小病毒 (canine parvovirus)); test: cell-based or functional assay
[2] = target: 犬细小病毒VLPs (canine parvovirus virus-like particles) (犬细小病毒 (canine parvovirus)); test: non-competitive indirect ELISA, CPV-VLPs coated at 1, 0.5, 0.25, 0.125 μg/ml; mean of 6 Ka values
[3] = target: 犬细小病毒VLPs (canine parvovirus virus-like particles) (犬细小病毒 (canine parvovirus)); test: indirect ELISA, VLPs coated at 1μg/ml, hybridoma supernatant

Row | Binder | 中和效价 [1] | 血凝抑制效价 [1] | Ka [2] [M⁻¹] | OD450 [3] [OD450]
1 | 鼠源CPV基因工程抗体 (recombinant mouse anti-canine parvovirus antibody expressed in HEK-293 cells) (antibody, V domains shown) VH: QVQLKQSGPGLVQPSQSLSITCTVSGFSLTSYGVHWVRHSPGKGLEWLGVIWSGGSTDYNAAFISRLSITKDNSKTQVFFKMNSLQANDTAIYYCARNSFYGSTPGSYAMDYWGQGTSVTVSS VL: QIVLTQSPASLSMAIGEKVTIRCIASTDIDDDMNWYQQKPGKPPNLLISEGNTLRPGVPSRFSSSGYGTDFVFTIQNMLSEDVADYYCLQSDNLPLTFGAGTKLELK | 4 titre (1:x) and 8 titre (1:x) | 8 titre (1:x) |  | 
2 | CPV单克隆抗体 (mouse anti-canine parvovirus monoclonal antibody from hybridoma supernatant) (antibody, V domains shown) VH: QVQLKQSGPGLVQPSQSLSITCTVSGFSLTSYGVHWVRHSPGKGLEWLGVIWSGGSTDYNAAFISRLSITKDNSKTQVFFKMNSLQANDTAIYYCARNSFYGSTPGSYAMDYWGQGTSVTVSS VL: QIVLTQSPASLSMAIGEKVTIRCIASTDIDDDMNWYQQKPGKPPNLLISEGNTLRPGVPSRFSSSGYGTDFVFTIQNMLSEDVADYYCLQSDNLPLTFGAGTKLELK |  |  | 1.02e+11 | 1.07
